Results: publication doi:10.1101/2022.05.05.490751
pKd: −log10 of the molar value.

Tests used:
Test in all cases: SPR
[1] = biological target: NYE 4E5E8E peptide on HLA-A*02:01
[2] = biological target: NYE 6V peptide on HLA-A*02:01
[3] = biological target: NYE 3A peptide on HLA-A*02:01
[4] = biological target: NYE 9V peptide (NYE-ESO157-165, heteroclitic 9V variant) on HLA-A*02:01
[5] = biological target: NYE 6T peptide on HLA-A*02:01
[6] = biological target: NYE 3Y peptide on HLA-A*02:01
[7] = biological target: NYE 4D peptide on HLA-A*02:01

For Soluble 1G4 TCR, the pKd [1] was 4.74, the pKd [2] was 4.77 and the pKd [3] was 5.15. The pKd [4] was 5.10, the pKd [5] was 3.79 and the pKd [6] was 4.26. The pKd [7] was 3.86.
